# Biological target: TrkB (Homo sapiens (Human), UniProt Q16620 32-430)
# Experiment: koff of Fab at 25 C; T1/2=Log2/koff
# In short: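 Monovalent Fab fragments were tested at 25° C by surface plasmon resonance on a Biacore instrument, against TrkB extracellular-domain monomer amine-coupled to the chip at low capacity. Fabs were injected low to high as a 3-fold serial dilution from 100 nM for 84 sec, with a 10 minute dissociation after the top sample. The dissociation half-life was calculated from koff, which was fitted to a Langmuir binding model in BIAevaluation. The formula used was T1/2 = Log 2/koff.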
# TrkB, sequence (Q16620 32-430 limits assumed): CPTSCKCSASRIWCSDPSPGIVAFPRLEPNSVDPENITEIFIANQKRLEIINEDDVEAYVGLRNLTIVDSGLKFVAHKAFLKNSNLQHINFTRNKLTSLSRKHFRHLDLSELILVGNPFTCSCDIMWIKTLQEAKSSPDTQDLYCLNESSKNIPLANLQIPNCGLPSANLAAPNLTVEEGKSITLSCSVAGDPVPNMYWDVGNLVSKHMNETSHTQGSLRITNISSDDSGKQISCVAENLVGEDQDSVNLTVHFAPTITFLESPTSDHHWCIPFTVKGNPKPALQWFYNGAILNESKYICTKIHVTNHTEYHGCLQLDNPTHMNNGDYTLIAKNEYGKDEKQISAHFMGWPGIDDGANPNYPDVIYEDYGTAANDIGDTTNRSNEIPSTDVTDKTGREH
row,T1/2,Binder
1,1.24 min,"4-D4 (Fab, V domains shown, Fab) VH: QVQLVQSGAEVKKPGASVKVSCKASGYTFTNYVILWVRQAPGQGLEWMGYINPYNDGTKYNEKFKGRVTMTRDTSTSTVYMELSSLRSEDTAVYYCARLLKYRRFRYYAIDYWGQGTTVTVSS VL: DIQMTQSPSSLSASVGDRVTITCRASENVYSNLAWYQQKPGKAPKLLIYAASNLQSGVPSRFSGSGSGTDFTFTISSLQPEDIATYYCQHFWYSPFTFGQGTKLEIK"
2,1.4 min,"4-C7 (Fab, V domains shown, Fab) VH: QVQLVQSGAEVKKPGASVKVSCKASGYTFTNYVILWVRQAPGQGLEWMGYINPYNDGTKYNEKFKGRVTMTRDTSTSTVYMELSSLRSEDTAVYYCARLLKYRRFSYYAIDYWGQGTTVTVSS VL: DIQMTQSPSSLSASVGDRVTITCRASENVYSNLAWYQQKPGKAPKLLIYAASNLQSGVPSRFSGSGSGTDFTFTISSLQPEDIATYYCQHFWGSPFTFGQGTKLEIK"
3,1.03 min,"4-F10 (Fab, V domains shown, Fab) VH: QVQLVQSGAEVKKPGASVKVSCKASGYTFTNYVILWVRQAPGQGLEWMGYINPYNDGTKYNEKFKGRVTMTRDTSTSTVYMELSSLRSEDTAVYYCARLLKYRRFSYYAIDYWGQGTTVTVSS VL: DIQMTQSPSSLSASVGDRVTITCRASENVYSNLAWYQQKPGKAPKLLIYAASNLQSGVPSRFSGSGSGTDFTFTISSLQPEDIATYYCQQFWYSPFTFGQGTKLEIK"
4,6.6 min,"4B12-3 (Fab, V domains shown, Fab) VH: QVQLVQSGAEVKKPGASVKVSCKASGYTFTNYDIIWVRQAPGQGLEWMGYINPYVGRREYNEKFKGRVTMTRDTSTSTVYMELSSLRSEDTAVYYCARLLKYRRFRYYAIDYWGQGTTVTVSS VL: DIQMTQSPSSLSASVGDRVTITCRASEPVYSNVAWYQQKPGKAPKLLIYAASNLQSGVPSRFSGSGSGTDYTFTISSLQPEDIATYYCQHFWGSPFTFGQGTKLEIK"

# Further lines, the binder ahead of its results:
row,Binder,T1/2
1,"4-B2 (Fab, V domains shown, Fab) VH: QVQLVQSGAEVKKPGASVKVSCKASGYTFTNYVILWVRQAPGQGLEWMGYINPYNDGTKYNEKFKGRVTMTRDTSTSTVYMELSSLRSEDTAVYYCARLLKYRRFRYYAIDYWGQGTTVTVSS VL: DIQMTQSPSSLSASVGDRVTITCRASENVYSNLAWYQQKPGKAPKLLIYAASNLQSGVPSRFSGSGSGTDFTFTISSLQPEDIATYYCQHFWGSPFTFGQGTKLEIK",1.33 min
2,"4B12-2 (Fab, V domains shown, Fab) VH: QVQLVQSGAEVKKPGASVKVSCKASGYTFTNYDIIWVRQAPGQGLEWMGYINPYQGRREYNEKFKGRVTMTRDTSTSTVYMELSSLRSEDTAVYYCARLLKYRRFRYYAIDYWGQGTTVTVSS VL: DIQMTQSPSSLSASVGDRVTITCRASEPVYSNVAWYQQKPGKAPKLLIYAASNLQSGVPSRFSGSGSGTDYTFTISSLQPEDIATYYCQHFWGSPFTFGQGTKLEIK",5.8 min
3,"4-E1 (Fab, V domains shown, Fab) VH: QVQLVQSGAEVKKPGASVKVSCKASGYTFTNYVILWVRQAPGQGLEWMGYINPYNDGTKYNEKFKGRVTMTRDTSTSTVYMELSSLRSEDTAVYYCARLLKYRAFSYYAIDYWGQGTTVTVSS VL: DIQMTQSPSSLSASVGDRVTITCRASENVYSNLAWYQQKPGKAPKLLIYAASNLQSGVPSRFSGSGSGTDFTFTISSLQPEDIATYYCQHFWGSPFTFGQGTKLEIK",0.71 min
4,"4A6-12 (Fab, V domains shown, Fab) VH: QVQLVQSGAEVKKPGASVKVSCKASGYTFTNYDIIWVRQAPGQGLEWMGYINPYNRRRKYNEKFKGRVTMTRDTSTSTVYMELSSLRSEDTAVYYCARLLKYRRFRYYAIDYWGQGTTVTVSS VL: DIQMTQSPSSLSASVGDRVTITCHASENVYSNLAWYQQKPGKAPKLLIYAASNLQSGVPSRFSGSGSGTDYTFTISSLQPEDIATYYCQHFWGSPFTFGQGTKLEIK",74.2 min

# Reference: patent US20100196390A1 (RINAT NEUROSCIENCE, published 2010)
